Measurements from patent US20250115669A1, “FGFR1/KLB Targeting Agonistic Antigen-Binding Proteins and Conjugates Thereof with GLP-1R Agonistic Peptides” (SANOFI, priority 2020, published 2025).
Where two headings read alike, the source gives them in different places.

Legend:
[1] = target: cynomolgus monkey beta-Klotho; assay: SPR binding affinity and kinetics to cynomolgus monkey beta-Klotho (Biacore 8K, anti-human Fc capture); design: species or system Cynomolgus monkey (Macaca fascicularis); settings: 1:1 binding model, read-out: KD monkey KLB
Description: (§1) Binding affinity and kinetics were measured on a Biacore 8K instrument (GE Healthcare). For the affinity capture of the diluted mAb sample, an anti-human Fc antibody (human antibody capture kit, GE Healthcare) was immobilized on all eight channels of a series S CM5 sensor chip (GE Healthcare) to approximately 10.000 RU. The anti-beta-Klotho antibodies were diluted into HBS-EP+ assay buffer (GE Healthcare) to 0.04 μg/mL. The antibodies were injected in the sample compartment, whereas the reference compartment was used without captured antibody. […] For the antigen inject the flow rate was adjusted to 60 μL/min with an association time of 180 sec and a dissociation time of 1800 sec. The maximum binding signal of beta-Klotho was in the range of 30 RU. At the end of each cycle an inject of regeneration solution, supplied with human antibody capture kit (GE Healthcare), supplemented with 10% non-specific binding reducer (GE Healthcare), for 1 min at 30 μL/min to remove antibody and antigen was performed. Binding kinetics data were evaluated with a 1:1 binding model using the Biacore 8K Evaluation Software version 1.1.1.7442 (GE Healthcare).
(§2) For interaction analysis with human beta-klotho, mAbs were captured via an anti-human Fc antibody immobilized on a series S CM5 sensor chip (human antibody capture kit, GE Healthcare). […] Binding kinetics data were evaluated with a 1:1 binding model using the Biacore 8K Evaluation Software version 1.1.1.7442 (GE Healthcare). For interaction analysis with Cynomolgus monkey beta-klotho, mAbs were captured via an anti-human Fc antibody immobilized on a series S CM5 sensor chip (human antibody capture kit, GE Healthcare). […] Binding kinetics data were evaluated with a 1:1 binding model using the Biacore 8K Evaluation Software version 1.1.1.7442 (GE Healthcare). Exemplary sensorgrams for the interaction are shown in FIG. 7 (human KLB) and 8 (monkey KLB), as well as in Table G.

[2] = Intact mass spectrometry (IMS); type: physicochemical; settings: for intact mass Identity confirmed / intact mass Peak intensity post stress: 21 days
Description: Protein integrity was analyzed by LC-MS. […] Reversed phase (RP) chromatography was done using a PLRP-S 1000A 5 μm, 50×2.1 mm (Agilent) with a guard column PLRP-S 300A 5 μm, 3×5 mm (Agilent) at 200 μL/min and 80° C. column temperature. Eluents were buffer A containing LC water and 0.1% formic acid as well as buffer B containing 90% acetonitrile, 10% LC water and 0.1% formic acid. 1 μg of protein was injected onto the column and eluted using linear gradient from 0 to 17 minutes with increasing acetonitrile concentration. Data was analyzed using MassHunter Bioconfirm B.06 (Agilent). Molecular masses were calculated based on the amino acid sequences of the proteins using GPMAW software version 10 (Lighthouse data).

human beta-Klotho [3] = target: T1, human beta-Klotho (Homo sapiens, UniProt Q86Z14); assay: SPR binding affinity and kinetics to human beta-Klotho (Biacore 8K, anti-human Fc capture)
T1 sequence (Q86Z14 1-1044): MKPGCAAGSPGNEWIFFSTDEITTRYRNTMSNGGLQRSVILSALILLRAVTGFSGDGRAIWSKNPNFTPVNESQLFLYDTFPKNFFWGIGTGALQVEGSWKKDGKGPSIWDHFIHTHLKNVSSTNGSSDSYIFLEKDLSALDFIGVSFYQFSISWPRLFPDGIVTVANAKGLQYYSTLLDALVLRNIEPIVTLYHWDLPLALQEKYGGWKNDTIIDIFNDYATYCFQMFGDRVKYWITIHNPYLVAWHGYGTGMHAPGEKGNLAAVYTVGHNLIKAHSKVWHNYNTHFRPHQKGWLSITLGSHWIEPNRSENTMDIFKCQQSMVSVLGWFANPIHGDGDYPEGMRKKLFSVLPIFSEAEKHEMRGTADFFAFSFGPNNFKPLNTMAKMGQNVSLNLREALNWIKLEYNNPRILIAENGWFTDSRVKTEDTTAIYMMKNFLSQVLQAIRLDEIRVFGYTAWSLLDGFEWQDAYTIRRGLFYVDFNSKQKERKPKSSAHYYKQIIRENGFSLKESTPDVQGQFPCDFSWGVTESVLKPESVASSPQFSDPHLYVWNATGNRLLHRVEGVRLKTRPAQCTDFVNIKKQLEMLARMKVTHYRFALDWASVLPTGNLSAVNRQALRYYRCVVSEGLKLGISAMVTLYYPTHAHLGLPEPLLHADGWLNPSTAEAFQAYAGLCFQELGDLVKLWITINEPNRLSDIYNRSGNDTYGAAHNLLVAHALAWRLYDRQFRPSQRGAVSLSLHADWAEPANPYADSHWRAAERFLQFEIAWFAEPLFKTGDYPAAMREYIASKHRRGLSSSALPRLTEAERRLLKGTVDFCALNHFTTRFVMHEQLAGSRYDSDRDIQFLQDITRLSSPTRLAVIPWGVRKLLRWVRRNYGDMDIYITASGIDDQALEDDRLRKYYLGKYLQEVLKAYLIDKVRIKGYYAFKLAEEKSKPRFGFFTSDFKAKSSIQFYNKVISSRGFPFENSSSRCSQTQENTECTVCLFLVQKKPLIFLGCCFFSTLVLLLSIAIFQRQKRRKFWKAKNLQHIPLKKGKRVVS
Description: as §1, §2

human beta-Klotho [4] = target: T1, human beta-Klotho; assay: SPR analysis of the active fraction of stressed antibodies; type: binding; settings: 21 days
Description: Analysis of the active fraction of stressed antibodies was performed by SPR using the same Fc capture assay set up as described above for the affinity determination. In this case the association and dissociation times for human beta-Klotho were set to 240 sec and 300 sec, respectively. The active fraction of the samples was calculated as the ratio of binding signal for human beta-Klotho and the Fc capture signal of the antibody, normalized to the active fraction of the unstressed control samples. Mean values from three experiments were calculated.

[5] = Capillary isoelectric focusing (cIEF); type: physicochemical
Description: Charge heterogeneity of the antibody samples was determined by capillary isoelectric focusing (cIEF) using a Maurice C device (Protein Simple). The samples were prepared by the cIEF protocol given by the manufacturer with an ampholyte mix 3-10 (Protein Simple) and peptide pl markers of 5.85 and 9.0 (Protein Simple). cIEF runs were analyzed using Compass Software v2.1.0 (Protein Simple).

[6] = SPR, 1:1 binding model, read-out: KD human KLB

| Substance | Kd [1] | Identity, correct pairing, intact mass, Identity confirmed [2] | intact mass Identity confirmed ([2]; pH 5, 40° C.) | intact mass Peak intensity post stress ([2]; pH 5, 40° C.) | intact mass Identity confirmed ([2]; pH 6, 40° C.) | intact mass Peak intensity post stress ([2]; pH 6, 40° C.) | intact mass Identity confirmed ([2]; pH 8, 40° C.) | intact mass Peak intensity post stress ([2]; pH 8, 40° C.) | Kd (human beta-Klotho [3]; [6]) | Kd (human beta-Klotho [3]; read-out: Affinity SPR KD) | SPR rel. active fraction (human beta-Klotho [4]; pH 5, 40° C.) | SPR rel. active fraction (human beta-Klotho [4]; pH 6, 40° C.) | SPR rel. active fraction (human beta-Klotho [4]; pH 8, 40° C.) | Charge homogeneity cIEF % main peak [5] | Charge homogeneity cIEF Number of peaks [5] | Charge homogeneity cIEF pI [5] | cIEF % Main peak ([5]; pH 5, 40° C., d 21) | cIEF Number of peaks ([5]; pH 5, 40° C., d 21) | cIEF % Main peak ([5]; pH 5, d 0) | cIEF Number of peaks ([5]; pH 5, d 0) | further results |
| --- | --- | --- | --- | --- | --- | --- | --- | --- | --- | --- | --- | --- | --- | --- | --- | --- | --- | --- | --- | --- | --- |
| 16H7: anti FGFR1c/KLB monoclonal antibody of WO 2011/071783, IgG2 backbone; HC SEQ ID NO: 1, LC SEQ ID NO: 2 [Ab 16H7] | 428 pM | – | – | – | – | – | – | – | – | – | – | – | – | – | – | – | – | – | – | – | – |
| Ab0331: IgG4 PE; 16H7 VL (N25S, D49S, D50E, D91E, N93E); 16H7 VH (M34V, I83T, D109E); HC SEQ ID NO: 38, LC SEQ ID NO: 45 | 3490 pM | Yes | Yes | 84% | Yes | 97% | Yes | 75% | 206 pM | 210 pM | 97% | 91% | 78% | 73% | 5 | 6.9 | 59% | 5 | 73% | 5 | affinity to human KLB compared to 16H7 (human beta-Klotho [3]): comparable affinity; cIEF % Main peak ([5]; pH 6, 40° C., d 21): 57%; cIEF Number of peaks ([5]; pH 6, 40° C., d 21): 4; cIEF % Main peak ([5]; pH 6, d 0): 73%; cIEF Number of peaks ([5]; pH 6, d 0): 5; cIEF % Main peak ([5]; pH 8, 40° C., d 21): 14%; cIEF Number of peaks ([5]; pH 8, 40° C., d 21): 6; cIEF % Main peak ([5]; pH 8, d 0): 72%; cIEF Number of peaks ([5]; pH 8, d 0): 5 |
| Ab0335: IgG4 PE; 16H7 VL (N25S, D49S, D50A, D91E, N93E); 16H7 VH (M34V, I83T, D109E); HC SEQ ID NO: 39, LC SEQ ID NO: 46 | 2950 pM | Yes | Yes | 84% | Yes | 85% | Yes | 53% | 158 pM | 160 pM | 93% | 92% | 73% | 71.4% | 4 | 7.1 | 59% | 4 | 70% | 5 | affinity to human KLB compared to 16H7 (human beta-Klotho [3]): comparable affinity; cIEF % Main peak ([5]; pH 6, 40° C., d 21): 59%; cIEF Number of peaks ([5]; pH 6, 40° C., d 21): 4; cIEF % Main peak ([5]; pH 6, d 0): 71%; cIEF Number of peaks ([5]; pH 6, d 0): 4; cIEF % Main peak ([5]; pH 8, 40° C., d 21): 12%; cIEF Number of peaks ([5]; pH 8, 40° C., d 21): 5; cIEF % Main peak ([5]; pH 8, d 0): 68%; cIEF Number of peaks ([5]; pH 8, d 0): 5 |
| Ab0351: IgG4 PE; 16H7 VL (N25S, D49E, D50E, D91E, N93E); 16H7 VH (M34V, I83T, D109E); HC SEQ ID NO: 40, LC SEQ ID NO: 47 | – | Yes | Yes | 90% | Yes | 96% | Yes | 77% | 248 pM | 250 pM | 95% | 92% | 75% | 72.6% | 4 | 6.7 | 59% | 5 | 72% | 4 | affinity to human KLB compared to 16H7 (human beta-Klotho [3]): comparable affinity; cIEF % Main peak ([5]; pH 6, 40° C., d 21): 58%; cIEF Number of peaks ([5]; pH 6, 40° C., d 21): 4; cIEF % Main peak ([5]; pH 6, d 0): 73%; cIEF Number of peaks ([5]; pH 6, d 0): 4; cIEF % Main peak ([5]; pH 8, 40° C., d 21): 15%; cIEF Number of peaks ([5]; pH 8, 40° C., d 21): 5; cIEF % Main peak ([5]; pH 8, d 0): 71%; cIEF Number of peaks ([5]; pH 8, d 0): 4 |
| Ab0428: IgG1 NNAS; 16H7 VL (N25S, D49S, D50E, D91E, N93E); 16H7 VH (M34V, I83T, D109E); HC SEQ ID NO: 41, LC SEQ ID NO: 48 | 2540 pM | Yes | Yes | 84% | Yes | 87% | Yes | 56% | 205 pM | 210 pM | 94% | 93% | 79% | 20.4% | 8 | 7.3-8.0 | 15% | 8 | 21% | 8 | cIEF % Main peak ([5]; pH 6, 40° C., d 21): 21%; cIEF Number of peaks ([5]; pH 6, 40° C., d 21): 8; cIEF % Main peak ([5]; pH 6, d 0): 20%; cIEF Number of peaks ([5]; pH 6, d 0): 8; cIEF % Main peak ([5]; pH 8, 40° C., d 21): 11%; cIEF Number of peaks ([5]; pH 8, 40° C., d 21): 9; cIEF % Main peak ([5]; pH 8, d 0): 21%; cIEF Number of peaks ([5]; pH 8, d 0): 9 |
